{"source": "the nanobody polyreactivity screen of Harvey et al. (2022)"}
{"assay": "yeast display, Sf9 membrane polyspecificity reagent, FACS + sequencing; frameworks hold sequencing errors", "method_in_brief": "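Galactose induction of a Saccharomyces cerevisiae BJ5465 synthetic nanobody display library ran 36–48 hours. The cells were then stained for 1 hour at 4 °C with 10% biotinylated, detergent-solubilized Sf9 membrane reagent, pulled down on streptavidin microbeads and FACS-sorted into low and high (top ~1%) gates on expression and reagent-binding fluorescence. Labels for polyreactivity follow the gate of origin.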"}
{"sequence": "QVQLVESGGGLVQAGGSLRLSCAASGSIFYRNTMGWYRQAPGKERELVASINTGTGTYYADSVKGRFTISRDNAKNTVYLQMNSLKPEDTAVYYCNAKGWVWPFPSYYPYDSWGQGTQVTVSS", "polyreactivity (PSR sort gate)": "high polyreactivity"}
{"sequence": "QVQLVESGGGLVQAGGSLRLSCAASGSIFYRNVMGWYRQAPGKERELVAAISQRGGSTYYADSVKGRFTISRDNAKNTVYLQMNSLKPEDTAVYYCNAASRGAGTSIWSWYDHWGQGTQVTVSS", "polyreactivity (PSR sort gate)": "low polyreactivity"}
{"sequence": "QVQLVESGGGLVQAGGSLRLSCAASGSIFYRNVMGWYRQAPGKERELVAAISRSGGSTYYADSVKGRFTISRDNAKNTVYLQMNSLQPEDTAVYYCAGRYSPFYYWGQGTQVTVSS", "polyreactivity (PSR sort gate)": "high polyreactivity"}
{"sequence": "QVQLVESGGGLVQAGGSLRLSCAASGSIFYRYALGWYRQAPGKEREFVAGITTRGGSTYYADSVKGRFTISRDNAKNTVYFQMNCLKPEDTAVYDCAASSRVWPNFGYWGQGTQVTVSS", "polyreactivity (PSR sort gate)": "high polyreactivity"}
{"sequence": "QVQLVESGGGLVQAGGSLRLSCAASGSIFYRYAMAWYRQAPGKERELVAAISSTGSPYYADSVKGRFTISRDNAKNTVYLQRNSLKPEDTAVYYCAARQGYRSYRRYDDWGQGTQVTVSS", "polyreactivity (PSR sort gate)": "high polyreactivity"}
{"sequence": "QVQLVESGGGLVQAGGSLRLSCAASGSIFYRYAMGWNRPAPGKERELVAAISRSGGTTYYADSVKGRFTISRDNAKNTVYLQMYCLKPEDTAVYYCAALVFHAYSTDPYFYWGQGTQVTVSS", "polyreactivity (PSR sort gate)": "high polyreactivity"}
{"sequence": "QVQLVESGGGLVQAGGSLRLSCAASGSIFYRYAMGWYRPAPGKERELVAAISSTGSTYYADSVKGRFTISRDNAKNTVYLQMNSLKPEDTAVYYCAARQGFRSYRRYDYWGQGTQVTVSS", "polyreactivity (PSR sort gate)": "high polyreactivity"}
{"sequence": "QVQLVESGGGLVQAGGSLRLSCAASGSIFYRYAMGWYRQAPGKERELVASISSGVSTNYADSVKGRFTISRDNAKNTVYLQMNSLKPEDTAVYYCAAYYRGWSSSYWYPAYNYWGQGTQVTVSS", "polyreactivity (PSR sort gate)": "low polyreactivity"}
{"sequence": "QVQLVESGGGLVQAGGSLRLSCAASGSIFYRYAMGWYRQAPGKERELVATITRRGGTTYYADSVKGRFTISRDNAKNTVYLKMNSLKPEDTAVYYCARPYLRASYGAIDYDYWGQGTQVTVSS", "polyreactivity (PSR sort gate)": "high polyreactivity"}
{"sequence": "QVQLVESGGGLVQAGGSLRLSCAASGSIFYRYAMGWYRQAPGKERELVAVISTGGSTYYADSVKGRFTISRDNAKNTVYLQMNSLKPEDTAVYYCNVLYYSRYAPYGRYGYWGQGTQVTVSS", "polyreactivity (PSR sort gate)": "high polyreactivity"}
{"sequence": "QVQLVESGGGLVQAGGSLRLSCAASGSIFYRYAMGWYSQAPGKERELVAAINNGGGRTYADSVKGRCTISRDNAKNTVYLQMNSLKPEDTAVYYCAARYYRDYRWYTYAYDYWGQGTQVNVSS", "polyreactivity (PSR sort gate)": "high polyreactivity"}
{"sequence": "QVQLVESGGGLVQAGGSLRLSCAASGSIFYSNAMGWYRQAPGKEREFVAAISAGGGSTYYADSVKGRFTISRDNAKNPVYLQMNSLKPEDTAVYYCAAQQYKIIYPYDYWGQGTQVTVSS", "polyreactivity (PSR sort gate)": "low polyreactivity"}
{"sequence": "QVQLVESGGGLVQAGGSLRLSCAASGSIFYSNAMGWYRQAPGKERELVAAISWSGGSTYYADSVKGRFTISRDYAKNTVYLQMNSLKPEDTAVYYCAASYDIYYYDAASLDDYDYWGQGTQVTVSS", "polyreactivity (PSR sort gate)": "low polyreactivity"}
{"sequence": "QVQLVESGGGLVQAGGSLRLSCAASGSIFYSNAMGWYRQAPGKERELVAAITSGGRTYYADSVKGRFTISRDNAKNTVYLQMNSLKPEDTAVFYCAARYYLGSWSDYYYWGQGTQVTVSS", "polyreactivity (PSR sort gate)": "high polyreactivity"}
{"sequence": "QVQLVESGGGLVQAGGSLRLSCAASGSIFYSNAMGWYRQAPGKERELVAAITSSGGITRYADSVKGRFTISRDNAKNTVYLQMNSLKPEDTAVYYCAKDIRVYASDYWGQGTQVTVSS", "polyreactivity (PSR sort gate)": "low polyreactivity"}
{"sequence": "QVQLVESGGGLVQAGGSLRLSCAASGSIFYSNAMGWYRQAPGKERELVAAITWRGGSTYYADSVKGRFTISRDNAKYTVYLQLNSLKPEDTAVYYCNADGSARTPYYYRWYRYGYWGQGTQVTVSS", "polyreactivity (PSR sort gate)": "high polyreactivity"}
{"sequence": "QVQLVESGGGLVQAGGSLRLSCAASGSIFYSNFMGWYRQAPGKERELVARITDAGSTNYADSVKGRFTISRDNAKNSVYLQMNSLKPEDTAVYYCNARLVIYTYDYWGQGTQVTVSS", "polyreactivity (PSR sort gate)": "low polyreactivity"}
{"sequence": "QVQLVESGGGLVQAGGSLRLSCAASGSIFYSYAMGWYRQAPGKERELVAAINWSGGSTYYADSVKGRFTISRDNAKNTVYLQMKSLKPEDTAVYYCAADYGWGPIYDYWGQGTQVTVSS", "polyreactivity (PSR sort gate)": "low polyreactivity"}
{"sequence": "QVQLVESGGGLVQAGGSLRLSCAASGSIFYSYAMGWYRQAPGKERELVAAISFSGGSTYYADSVKGRFTISRDNAKNTVYLHMNSLKPEDPAVYYCNTLSADTFDYWGQGTQVTVSS", "polyreactivity (PSR sort gate)": "low polyreactivity"}
{"sequence": "QVQLVESGGGLVQAGGSLRLSCAASGSIFYSYAMGWYRQAPGKERELVAAISTTGGSTYYADSVKGRFTISRDNAKNTVYLQMNSLKPEDTAVYYCAREQGFRGDWYDYWGQGTQVTVSS", "polyreactivity (PSR sort gate)": "high polyreactivity"}
{"sequence": "QVQLVESGGGLVQAGGSLRLSCAASGSIFYSYAMGWYRQAPGKERELVAAITSRTGNTYYADSVKGRFTISRDNAKNTVYLQMNSLKPEDTAVYYCAAKLVNALLHYRIWNHNNYWGQGTQVSVSS", "polyreactivity (PSR sort gate)": "low polyreactivity"}
{"sequence": "QVQLVESGGGLVQAGGSLRLSCAASGSIFYSYAMGWYRQAPGKERELVARITKRGGRTYYADSVKGRFTISRDNAKNTVYLQMNSLKPEDTAVYYCAATTGHRTYRYYYWGQGTQVTVSS", "polyreactivity (PSR sort gate)": "high polyreactivity"}
{"sequence": "QVQLVESGGGLVQAGGSLRLSCAASGSIFYSYAMGWYRQAPGKERELVASINWSGASTYYADSVKGRFTISRDYAKNTVYLQMNSLKPEDTAVYYCAADWWGYDGRYDYWGQGTQVTVSS", "polyreactivity (PSR sort gate)": "high polyreactivity"}
{"sequence": "QVQLVESGGGLVQAGGSLRLSCAASGSIFYSYAMGWYRQAPGKERELVAVITRGGSTNYADSVKGRFTISRDNAKNTVYLQLNSLKPEDTAVYYCNKDRYGKVFRYPPYYRSSPYDYWGQGTQVTVSS", "polyreactivity (PSR sort gate)": "high polyreactivity"}
{"sequence": "QVQLVESGGGLVQAGGSLRLSCAASGSIFYSYVMGWYRQAPGKERELVAAISRNGQSTYYADSVKGRFTISRDNAKNTVYLQMNSLKPEDTAVYYCAARSRDKYDYWGQGTQVTVSS", "polyreactivity (PSR sort gate)": "high polyreactivity"}
{"sequence": "QVQLVESGGGLVQAGGSLRLSCAASGSIFYTNAMGWYRQATGKERELVAVITASGGSTYYADSVKGRFTISRDNAKNTVYLQMNSLKPEDTAVYYCAADPVFNYDYWGQGTQVTVSS", "polyreactivity (PSR sort gate)": "low polyreactivity"}
{"sequence": "QVQLVESGGGLVQAGGSLRLSCAASGSIFYTYAMGWYRPAPGKEREFVAAITSSGGSTYYADSVKGRFTISRDNAKNTVYLQMNSLKPEDTAVYYCAARTPHYGKCYDIFDYWGQGTQVTVSS", "polyreactivity (PSR sort gate)": "low polyreactivity"}
{"sequence": "QVQLVESGGGLVQAGGSLRLSCAASGSIFYTYAMGWYRQAPGKERELVAAISGTGTSTYYADSVKGRFTISRDHAKNTVYLQMNSLKPEDTAVYFCATHGGAAWGRYYWYYGYWGQGTQVTVSS", "polyreactivity (PSR sort gate)": "low polyreactivity"}
{"sequence": "QVQLVESGGGLVQAGGSLRLSCAASGSIFYTYAMGWYRQAPGKERELVAAITYSGGSTYYADSVKGRFTISRDNAKNTVYLQMNSLKPEDTAVYYCAAYVIPGLGAEYGYWGQGTQVTVSS", "polyreactivity (PSR sort gate)": "low polyreactivity"}
{"sequence": "QVQLVESGGGLVQAGGSLRLSCAASGSIFYTYVMGWYRQAPGKVREFVAAISKSGGSTYYADSVKGRFTISRDNAKNPVYLQMNSLIPEVTAVYYCAAYPIVSIQRRARGNSWGQGTQVTVSS", "polyreactivity (PSR sort gate)": "high polyreactivity"}
